Source: patent US20040091500A1

Key:
[1] = target: Serum IgE from a pool of birch allergic patients (human); assay: fluid-phase IgE-inhibition assay
[2] = target: Serum IgE from a pool of birch allergic patients (human); assay: fluid-phase IgE-inhibition assay; competitor biotinylated Bet v 1 no. 2801

| Binder | factor by which affinity is lowered vs recombinant Bet v 1 [1] [fold] | factor of decrease in affinity vs recombinant Bet v 1 (at 50% inhibition) [1] [fold] | factor of decrease vs recombinant Bet v 1 (at 80% inhibition) [1] [fold] | amount to reach 80% inhibition [2] [ng] |
| --- | --- | --- | --- | --- |
| Bet v 1 mutant Asn28Thr+Lys32Gln (protein) GVFNYETETTSVIPAARLFKAFILDGDTLFPQVAPQAISSVENIEGNGGPGTIKKISFPEGLPFKYVKDRVDEVDHTNFKYNYSVIEGGPIGDTLEKISNEIKIVATPDGGSILKISNKYHTKGDHEVKAEQVKASKEMGETLLRAVESYLLAHSDAYN | 2 |  |  |  |
| Bet v 1 Pro108Gly mutant (protein) GVFNYETETTSVIPAARLFKAFILDGDNLFPKVAPQAISSVENIEGNGGPGTIKKISFPEGLPFKYVKDRVDEVDHTNFKYNYSVIEGGPIGDTLEKISNEIKIVATGDGGSILKISNKYHTKGDHEVKAEQVKASKEMGETLLRAVESYLLAHSDAYN | 2 |  |  |  |
| Bet v 1 Triple-patch mutant (Asn28Thr, Lys32Gln, Glu45Ser, Pro108Gly) (protein) GVFNYETETTSVIPAARLFKAFILDGDTLFPQVAPQAISSVENISGNGGPGTIKKISFPEGLPFKYVKDRVDEVDHTNFKYNYSVIEGGPIGDTLEKISNEIKIVATGDGGSILKISNKYHTKGDHEVKAEQVKASKEMGETLLRAVESYLLAHSDAYN |  | 5 | 20 | 400 |
| Recombinant Bet v 1 No. 2801 (protein) GVFNYETETTSVIPAARLFKAFILDGDNLFPKVAPQAISSVENIEGNGGPGTIKKISFPEGLPFKYVKDRVDEVDHTNFKYNYSVIEGGPIGDTLEKISNEIKIVATPDGGSILKISNKYHTKGDHEVKAEQVKASKEMGETLLRAVESYLLAHSDAYN |  |  |  | 20 |
| Bet v 1 Glu45Ser mutant (protein) GVFNYETETTSVIPAARLFKAFILDGDNLFPKVAPQAISSVENISGNGGPGTIKKISFPEGLPFKYVKDRVDEVDHTNFKYNYSVIEGGPIGDTLEKISNEIKIVATPDGGSILKISNKYHTKGDHEVKAEQVKASKEMGETLLRAVESYLLAHSDAYN | 2 |  |  |  |
